Reference: publication PMC10670289, “Characterization and Molecular Dynamics Simulation of a Lipase Capable of Improving the Functional Characteristics of an Egg-Yolk-Contaminated Liquid Egg White” (Foods, 2023)

Legend:
Experiment in all cases: purified protein
Type in all cases: biochemical, Bacillus subtilis
Conditions in all cases: 30 °C, pH 9.0
purified protein [1] = substrate: CCCCCCCCCC(=O)Oc1ccc([N+](=O)[O-])cc1
purified protein [2] = substrate: CCCCCCCC(=O)Oc1ccc([N+](=O)[O-])cc1
purified protein [3] = substrate: CCCCCC(=O)Oc1ccc([N+](=O)[O-])cc1
purified protein [4] = substrate: CCCCCCCCCCCC(=O)Oc1ccc([N+](=O)[O-])cc1
purified protein [5] = substrate: CCCCCCCCCCCCCCCCCC(=O)Oc1ccc([N+](=O)[O-])cc1
purified protein [6] = substrate: CCCCCCCCCCCCCC(=O)Oc1ccc([N+](=O)[O-])cc1
purified protein [7] = substrate: CCCCCCCCCCCCCCCC(=O)Oc1ccc([N+](=O)[O-])cc1

B1: Lip-IM (Bacillus subtilis subsp. subtilis str. 168) (protein)
chain: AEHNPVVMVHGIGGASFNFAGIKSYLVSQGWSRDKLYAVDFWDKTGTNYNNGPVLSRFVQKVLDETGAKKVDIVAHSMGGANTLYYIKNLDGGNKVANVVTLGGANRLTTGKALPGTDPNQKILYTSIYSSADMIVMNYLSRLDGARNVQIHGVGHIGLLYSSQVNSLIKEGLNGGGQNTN
notes: 22 kDa by SDS-PAGE
- Km (purified protein [1]): 5.23 ± 0.04 mM
- Vmax (purified protein [1]): 184 µM/min
- Km (purified protein [2]): 4.21 ± 0.09 mM
- Vmax (purified protein [2]): 236 µM/min
- Km (purified protein [3]): 3.92 ± 0.06 mM
- Vmax (purified protein [3]): 233 µM/min
- Km (purified protein [4]): 5.96 ± 0.08 mM
- Vmax (purified protein [4]): 204 µM/min
- Km (purified protein [5]): 6.26 ± 0.07 mM
- Vmax (purified protein [5]): 292 µM/min
- Km (purified protein [6]): 5.12 ± 0.09 mM
- Vmax (purified protein [6]): 214 µM/min
- Km (purified protein [7]): 9.26 ± 0.09 mM
- Vmax (purified protein [7]): 150 µM/min
